Values of other authors as cited in paper PMC7755605.

Molecular target: TRAF6 (Homo sapiens) (UniProt Q9Y4K3)
Sequence (Q9Y4K3 whole entry): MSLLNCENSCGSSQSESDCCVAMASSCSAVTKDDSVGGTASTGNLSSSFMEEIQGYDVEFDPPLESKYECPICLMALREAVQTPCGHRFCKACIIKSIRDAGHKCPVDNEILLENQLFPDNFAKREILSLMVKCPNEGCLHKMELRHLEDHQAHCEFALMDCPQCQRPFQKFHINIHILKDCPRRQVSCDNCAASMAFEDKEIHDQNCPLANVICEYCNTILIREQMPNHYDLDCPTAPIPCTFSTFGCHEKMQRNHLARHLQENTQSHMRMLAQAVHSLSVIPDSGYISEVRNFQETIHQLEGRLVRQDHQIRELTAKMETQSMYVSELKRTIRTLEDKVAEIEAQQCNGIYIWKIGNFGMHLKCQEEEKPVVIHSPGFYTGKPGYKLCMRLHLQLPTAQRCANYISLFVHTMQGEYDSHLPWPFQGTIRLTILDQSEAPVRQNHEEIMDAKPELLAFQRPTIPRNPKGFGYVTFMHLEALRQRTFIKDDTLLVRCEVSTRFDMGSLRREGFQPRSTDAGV

Chain of TRANCE-R (Q9Y6Q6 30-616): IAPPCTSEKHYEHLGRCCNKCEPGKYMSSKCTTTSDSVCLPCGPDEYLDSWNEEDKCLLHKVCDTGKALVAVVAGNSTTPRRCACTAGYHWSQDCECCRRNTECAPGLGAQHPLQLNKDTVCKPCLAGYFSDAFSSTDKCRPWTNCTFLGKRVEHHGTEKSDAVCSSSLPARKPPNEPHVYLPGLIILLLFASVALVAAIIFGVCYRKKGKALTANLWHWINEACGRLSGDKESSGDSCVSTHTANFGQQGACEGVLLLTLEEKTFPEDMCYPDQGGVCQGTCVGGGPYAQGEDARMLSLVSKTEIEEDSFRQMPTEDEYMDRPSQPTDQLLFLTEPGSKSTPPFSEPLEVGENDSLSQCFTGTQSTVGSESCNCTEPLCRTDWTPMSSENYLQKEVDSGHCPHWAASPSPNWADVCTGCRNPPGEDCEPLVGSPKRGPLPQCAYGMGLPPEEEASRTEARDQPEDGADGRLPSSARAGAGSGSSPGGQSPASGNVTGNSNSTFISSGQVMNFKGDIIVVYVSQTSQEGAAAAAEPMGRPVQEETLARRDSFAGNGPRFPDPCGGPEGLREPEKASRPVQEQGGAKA

- Kd: 84 µM
Substance: TRANCE-R (from UniProt Q9Y6Q6)
